The source of these data is US20210277128A1 (published 2021).

For assay [1], the target named is T1, SI-2C1, dimeric EGFR ECD fused to rabbit Fc (UniProt P00533 25-645, limits assumed).
T1 construct: extracellular domain; Made in house
The assay can be described thus: ELISA, dimeric EGFR ECD-rabbit Fc coated, anti-human IgG-HRP detection. For orientation: ELISA stands for enzyme-linked immunosorbent assay.
Experimental: ELISA was performed using dimeric EGFR ECD reagent, SI-2C1, fused to rabbit Fc created in house. EGFR was coated onto Maxisorp immunoplates (Nunc) at 3 μg/mL in PBS at 4° C. overnight. Plates were blocked in PBS with 3% BSA and 0.05% Tween20 for 2 hours at room temperature. […] 3 washes with PBST (1% BSA) were performed between each step.

Assay [2] has as its target T2, Monomeric EGFR extracellular domain (ProSpec Bio, PKA-344) (UniProt P00533 25-645, limits assumed).
T2 construct: extracellular domain; Bought reagent; also called EGFR ECD
The assay can be described thus: BLI (BLItz), antibody on anti-human IgG Fc tips, EGFR ECD 200 nM then Her3 ECD 200 nM.
Experimental: Bispecific binding to EGFR and Her3 extracellular domains was measured in a biolayer interferometry (BLI) binding assay on a BLItz instrument (ForteBio, Inc.). […] Binding of EGFR ECD to the tips was recorded as biolayer interferometry signals (Δnm) over an association time of 120 seconds.

The target in assay [3] is T2, Monomeric EGFR extracellular domain …. As to the kind of experiment: BLI (BLItz), antibody on anti-human IgG Fc tips, EGFR ECD 588 nM; benchmark antibody.
Experimental: Monomeric EGFR extracellular domain binding was measured in a biolayer interferometry (BLI) binding assay on a BLItz instrument (ForteBio, Inc.). […] Binding of EGFR ECD to the tips was recorded as biolayer interferometry signals (Δnm) over an association time of 120 seconds.

B1: SI-1C5 (antibody, human IgG1, kappa, V domains shown)
VH: QVQLQQSGAEVKKPGSSVKVSCKASGYTFTNYYIYWVRQAPGQGLEWIGGINPTSGGSNFNEKFKTRVTITVDESTNTAYMELSSLRSEDTAFYFCARQGLWFDSDGRGFDFWGQGSTVTVSS
VL: DIQMTQSPSSLSASVGDRVTITCRSSQNIVHSNGNTYLDWYQQTPGKAPKLLIYKVSNRFSGVPSRFSGSGSGTDFTFTISSLQPEDIATYYCFQYSHVPWTFGQGTKLQITR
notes: Monospecific anti-EGFR antibody
On to B1, for which the binding result in assay [1] is on record as “binds”.

B2: SI-1X1 (bispecific antibody, human IgG1, kappa)
heavy: not shown
light: QSALTQPASVSGSPGQSITISCTGTSSDVGGYNFVSWYQQHPGKAPKLMIYDVSDRPSGVSDRFSGSKSGNTASLIISGLQADDEADYYCSSYGSSSTHVIFGGGTKLTVLRTVAAPSVFIFPPSDEQLKSGTASVVCLLNNFYPREAKVQWKVDNALQSGNSQESVTEQDSKDSTYSLSSTLTLSKADYEKHKVYACEVTHQGLSSPVTKSFNRGEC
notes: Tetravalent IgG-(G4S)2-scFv; heavy chain entry holds gamma-1 heavy chain, connector and scFv; Anti-Her3 IgG moiety, anti-EGFR scFv
On to B2, for which the binding result in assay [2] is “binds”.

B3: SI-1C4 (bispecific antibody, human IgG1, kappa, V domains shown)
VH: EVQLVESGGGLVQPGGSLRLSCAASGFTLSGDWIHWVRQAPGKGLEWVGEISAAGGYTDYADSVKGRFTISADTSKNTAYLQMNSLRAEDTAVYYCARESRVSFEAAMDYWGQGTLVTVSS
VL: DIQMTQSPSSLSASVGDRVTITCRASQNIATDVAWYQQKPGKAPKLLIYSASFLYSGVPSRFSGSGSGTDFTLTISSLQPEDFATYYCQQSEPEPYTFGQGTKVEIKR
notes: also called IC4
As for B3, the binding result in assay [3] is on record as “binds”.
